In US20210130473A1 (SILVERBACK THERAPEUTICS, published 2021):
Changes are numbered by the printed parent chain. Numbers in names are those of the source.

T1: rat ASGR1 on CHO-S cells (rat, UniProt P02706 1-284)
T1 construct: whole, on cells
T1 sequence (looked up): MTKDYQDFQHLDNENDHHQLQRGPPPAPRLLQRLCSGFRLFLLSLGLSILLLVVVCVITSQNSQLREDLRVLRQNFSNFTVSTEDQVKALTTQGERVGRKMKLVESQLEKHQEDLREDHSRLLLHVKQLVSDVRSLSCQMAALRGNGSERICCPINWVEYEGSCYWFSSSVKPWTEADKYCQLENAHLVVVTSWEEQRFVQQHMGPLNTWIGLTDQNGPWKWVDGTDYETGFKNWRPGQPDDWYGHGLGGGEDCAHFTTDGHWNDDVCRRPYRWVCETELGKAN

T2: human ASGR1 (asialoglycoprotein receptor 1) on cells (human, UniProt P07306 1-291)
T2 construct: whole, on cells; also called HepG2 cells; CHO-S cells transfected with human ASGR1 full length DNA
T2 sequence (looked up): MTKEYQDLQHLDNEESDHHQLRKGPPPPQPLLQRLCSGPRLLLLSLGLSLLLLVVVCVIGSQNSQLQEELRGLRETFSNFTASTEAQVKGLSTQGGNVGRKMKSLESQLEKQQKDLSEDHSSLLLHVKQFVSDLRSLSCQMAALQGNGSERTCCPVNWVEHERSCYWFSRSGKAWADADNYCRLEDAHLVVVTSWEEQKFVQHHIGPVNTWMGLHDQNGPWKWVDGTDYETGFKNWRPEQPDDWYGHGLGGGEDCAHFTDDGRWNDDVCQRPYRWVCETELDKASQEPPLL

B1: K2E (antibody, V domains shown)
VH: QVQLQQSAAELARPGASVKMSCKASGYTFTSYTMHWVKQRPGQGLEWIGYISPSSGYTEYNQKFKDKTTLTADKSSSTAYMQLSSLTSEDSAVYYCARKFDYWGQGTTLTVSS
VL: DIKMTQSPSSMYASLGERVTITCKASQDINSYLSWFQQKPGKSPKTLIYRANRLVDGVPSRFSGSGSGQDFSLTISSLEYEDMGIYYCLQYDEFPFTFGSGTKLEIK
notes: parental mouse hybridoma antibody; also called mAb K2E
B2: J4F (antibody, V domains shown)
VH: QVQLQQSGDDLVKPGASVKLSCKASGYTFTSYWINWIKQRPGQGLEWIGRIVPGSGSTYYNEMFKDKATLTVDTSSSTAYIQLSSLSSEDSAVYFCARKPNFDVWGAGTTVTVSS
VL: DIVMTQSQKFMSTSVGDRVSVTCKASQNVGTNVAWYQQKPGQSPKAVIYSASYRFSGVPDRLTGSGSGTDFTLTITNVQSEDLAEYFCQQYNSYPLTFGAGTKLELK
notes: parental mouse hybridoma antibody; also called mAb J4F
B3: ASGR1 mAb-C (antibody, V domains shown)
VH: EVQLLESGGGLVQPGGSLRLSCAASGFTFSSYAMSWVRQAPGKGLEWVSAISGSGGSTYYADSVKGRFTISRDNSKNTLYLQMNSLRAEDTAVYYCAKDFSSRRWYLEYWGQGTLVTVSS
VL: SSELTQDPAVSVALGQTVRITCQGDSLRSYYASWYQQKPGQAPVLVIYGKNNRPSGIPDRFSGSSSGNTASLTITGAQAEDEADYYCNSLERIGYLSYVFGGGTKLTVL
notes: control with CDRs of anti-ASGR1 antibody 4F3; mouse IgG2a or human IgG1 isotype by assay; also called 4F3
B4: hzL4L-5 (antibody, IgG1, V domains shown)
VH: QVQLQESGPGLVKPSQTLSLTCTVSGYSISSDYAWNWIRQHPGKGLEWIGYISYSGSTRYNPSLKSRISITRDTSKNQFSLKLSSVTAADTAVYYCARRYRYDEGYGMDYWGQGTTVTVSS
VL: DIQMTQSPSSLSASVGDRVTITCRASENIYSNLAWYQQKPGKAPKLLIYAATNLADGVPSRFSGSGSGTDFTLTISSLQPEDFATYYCQHFWGTPPWTFGGGTKVEIK
notes: IgG1, kappa
B5: hzL4L-2 (antibody, IgG1, V domains shown)
VH: B4 VH with Y27G, S30T
VL: B4 VL
notes: IgG1, kappa
B6: hzL4L-6 (antibody, IgG1, V domains shown)
VH: B4 VH with S30T, I68V, S69T
VL: B4 VL
notes: IgG1, kappa
B7: hzL4L-10 (antibody, IgG1, V domains shown)
VH: B4 VH with S30T
VL: B4 VL with D56S
notes: IgG1, kappa
B8: hzG2D-11 (antibody, human IgG1, kappa)
heavy: not shown
light: DIQMTQSPSSLSASVGDRVTITCKASQVINSYLSWFQQKPGKAPKSLIYRANTLVDGVPSRFSGSGSGTDFTLTISSLQPEDFATYYCLQYAEFPYTFGGGTKVEIKRTVAAPSVFIFPPSDEQLKSGTASVVCLLNNFYPREAKVQWKVDNALQSGNSQESVTEQDSKDSTYSLSSTLTLSKADYEKHKVYACEVTHQGLSSPVTKSFNRGEC
B9: hzG2D-20 (antibody, human IgG1, kappa)
heavy: not shown
light: B8 light
B10: hzG2D-17 (antibody, human IgG1, kappa, V domains shown)
VH: QVQLVQSGAEVKKPGASVKVSCKASGYTFTGYYMHWVRQAPGQRLEWMGRINPNNGATNYNQNFKDKASLTVDTSASTAYMELSSLRSEDTAVYYCARVNFYYWGQGTTLTVSS
VL: DIKMTQSPSSMYASLGERVTITCKASQVINSYLSWFQQKPGKSPETLIYRANTLVDGVPSRFSGSGSGQDYSLTISSLEYEDLGIYYCLQYAEFPYTFGGGTKLEIKR
notes: humanized VH with the mouse G2D VL
B11: F(ab')2 fragment of K2E (F(ab')2)
VH: B1 VH
VL: B1 VL
B12: F(ab')2 fragment of G2D (F(ab')2)
VH: EVQLQQSGPELVKPGASVKISCKASGYSFTGYYMHWVKQSHVKSLEWIGRINPNNGATNYNQNFKDKASLTVDKSSSTAYMEFHSLTSEDSAVYYCTSVNFYYWGQGTTLTVSS
VL: B1 VL with D28V, K45E, R53T, F71Y, M83L, D92A, F96Y, S100G
B13: F(ab')2 fragment of hzL4L-14 (F(ab')2)
VH: B4 VH with I68V, S69T
VL: B4 VL with D56E
B14: F(ab')2 fragment of hzH8K-1 (F(ab')2)
VH: QVQLQESGPGLVKPSQTLSLTCTVSGGSISSDYAWNWIRQHPGKGLEWIGYRSYRGSTSYNPSLKSRVTISVDTSKNQFSLKLSSVTAADTAVYYCARRGYYGSSSHWYFDVWGQGTTVTVSS
VL: DIQMTQSPSSLSASVGDRVTITCRASENIYSYLAWYQQKPGKAPKLLIYNAKTLAEGVPSRFSGSGSGTDFTLTISSLQPEDFATYYCQHHYGTPLTFGGGTKVEIK
B15: F(ab')2 fragment of J4F (F(ab')2)
VH: B2 VH
VL: B2 VL
B16: F(ab')2 fragment of ASGR1 mAb-C (F(ab')2)
VH: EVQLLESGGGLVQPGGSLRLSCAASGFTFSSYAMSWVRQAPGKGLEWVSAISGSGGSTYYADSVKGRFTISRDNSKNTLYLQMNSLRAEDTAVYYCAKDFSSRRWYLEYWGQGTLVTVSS
VL: B3 VL
modifications: F(ab')2 fragment: two Fab arms joined at the hinge, with the Fc removed.

Each binder was assayed against T3, Cynomolgus macaque ASGR1 on CHO-S cells (Cynomolgus macaque) (assay: Guava flow cytometry on CHO-S cells expressing cynomolgus ASGR1 (repeat of Table 15)).
T3 construct: whole, on cells; also called Cynomologous ASGR1
Experimental: (§1) Anti-human ASGR1 antibodies of this disclosure were examined for cross-reactivity with Cynomolgus macaque and rat ASGR1. Briefly, sequence encoding Cynomolgus macaque or rat ASGR1 was transiently transfected into CHO-S cells. Transfected cells were before performing cell binding assay. A total of about 1.5×10⁴ transfected cells/well were added to 96-well V-bottom assay plate, incubated at 37° C., 5% CO2 for 48-72 hours, and then washed with culture medium before adding 100 μl of each ASGR1 antibody at different concentrations starting from 100 nM and 3-fold dilutions to a total of eight wells. The cells with antibody were incubated for 40 minutes at 4° C., then washed three times with 200 μl of fresh culture medium. To each well was added 50 μl PE conjugated goat anti-human Fc (SouthemBiotech) at 1:200 dilution in culture medium and then incubated at 4° C. for 20 minutes. After washing the plate once, the treated cells were resuspended in 200 μl culture medium and then the stained cells were analyzed on GUAVA® using Incyte software.

| EC50 [nM] | Binder |
| --- | --- |
| 0.68 | B1 |
| 0.67 | B2 |
| 2.35 | B3 |

These binders were tested against T1, rat ASGR1 on CHO-S cells (assay: Guava flow cytometry on CHO-S cells expressing rat ASGR1 (repeat of Table 16)).
Experimental: as §1, with “Briefly,” for “Anti-human ASGR1 antibodies of this disclosure were examined for cross-reactivity with Cynomolgus macaque and rat ASGR1. Briefly,”, “(SouthernBiotech)” for “(SouthemBiotech)”
as §1

| EC50 [nM] | Binder |
| --- | --- |
| 0.52 | B1 |
| 0.62 | B2 |

What follows are binders tested against T3, Cynomolgus macaque ASGR1 on CHO-S cells (assay: Guava flow cytometry on CHO-S cells expressing cynomolgus ASGR1).
Experimental: as §1

| EC50 [nM] | Binder |
| --- | --- |
| 0.68 | B1 |
| 0.67 | B2 |
| 2.35 | B3 |

What follows are binders tested against T1, rat ASGR1 on CHO-S cells (assay: Guava flow cytometry on CHO-S cells expressing rat ASGR1).
Experimental: as §1

| EC50 [nM] | Binder |
| --- | --- |
| 0.52 | B1 |
| 0.62 | B2 |

Each binder was assayed against T2, human ASGR1 (asialoglycoprotein …) (assay: Guava flow cytometry screen on HepG2 cells).

| binding result | Binder |
| --- | --- |
| binds | B4 |
| binds | B5 |
| binds | B6 |
| binds | B7 |

Target: T2, human ASGR1 (asialoglycoprotein …)
Assay: Guava flow cytometry screen on HepG2 cells
Remark: another data set of the same source

| binding result | Binder |
| --- | --- |
| binds | B8 |
| binds | B9 |
| binds | B10 |

These binders were tested against T2, human ASGR1 (asialoglycoprotein …) (assay: flow cytometry on HepG2 cells, anti-human IgG PE secondary, MFI (Geo Mean)).
Experimental: Briefly, 5×10⁴ HepG2 cells/well were contacted with titrating concentrations of anti-ASGR1 antibodies in FACS Buffer (FB: PBS+2% FBS+1 mM CaCl₂)) for 30 minutes at 4° C. Cells were washed twice in FB, then incubated in anti-human IgG PE secondary for 30 minutes at 4° C. Cells were washed twice in FB, then analyzed by flow cytometry.

| EC50 (read off the curve) [µg/mL] | Binder |
| --- | --- |
| ~0.3 | B1 |
| ~0.3 | B2 |
| ~0.3 | B3 |

What follows are binders tested against T2, human ASGR1 (asialoglycoprotein …) (assay: competition flow cytometry on CHO-S cells with human ASGR1; 200 nM F(ab')2 against 33 nM GalNac-hFc).

| % Blocking GalNac Binding [%] | Binder |
| --- | --- |
| 10 | B11 |
| -0.3 | B12 |
| 90.7 | B13 |
| 81.3 | B14 |
| -32.1 | B15 |
| -5.4 | B16 |
